Laboratory results published in article PMC9400078.

Key:
[1] = target: CelTOS N-terminal truncation mutant (Gly51–Asp196) (Plasmodium vivax); test: SEC
[2] = target: CelTOS double mutant Lys122Asp, Leu164Asp (Plasmodium vivax); test: SEC

Substance | stoichiometry N [1] | stoichiometry N [2]
CelTOS N-terminal truncation mutant (Gly51–Asp196) (domain or fragment) | 2 | 
CelTOS double mutant Lys122Asp, Leu164Asp (natural protein) |  | 2
